To fix the notation:
B1: Pistol ribozyme (parent)
chain: GGGUCGUUGUUCCAUAAUCGCGUGGAUAUGGCACGCAAGUUUCUACCGGGCACCGUAAAUGUCCGACUGGAGCCGUUCGGGCGGCUAUAAACAGACCUCAGGCCCGAAGCGUGGCGGCACCUGCCGCCGGUGGUAAAAAAGAUCGGAAGAGCACACGUCU

The variants in the series derive from B1. The experiment in a line: aptazyme ON/OFF ratio, guanine; higher = stronger switching; co-transcriptional cleavage with and without guanine.
GGGUCGACUCAAAAUAAUCGCGUGGAUAUGGCACGCAAGUUUCUACCGGGCACCGUAAAUGUCCGACUGGAGCCGUUCGGGCGGCUAUAAACAGACCUCAGGCCCGAAGCGUGGCGGCACCUGCCGCCGGUGGUAAAAAAGAUCGGAAGAGCACACGUCU [U7A U8C G9U U10C U11A C12A C13A]: the “aptazyme ON/OFF ratio” value turned out to be 1.12.
On to GGGUCGGUGUAACAUAAUCGCGUGGAUAUGGCACGCAAGUUUCUACCGGGCACCGUAAAUGUCCGACUGGAGCCGUUCGGGCGGCUAUAAACAGACCUCAGGCCCGAAGCGUGGCGGCACCUGCCGCCGGUGGUAAAAAAGAUCGGAAGAGCACACGUCU [U7G U11A C12A], for which the “aptazyme ON/OFF ratio” value was found to be 1.16.
With GGGUCGUCUACCGAUAAUCGCGUGGAUAUGGCACGCAAGUUUCUACCGGGCACCGUAAAUGUCCGACUGGAGCCGUUCGGGCGGCUAUAAACAGACCUCAGGCCCGAAGCGUGGCGGCACCUGCCGCCGGUGGUAAAAAAGAUCGGAAGAGCACACGUCU [U8C G9U U10A U11C C13G] the figure was 1.06.
In the case of GGGUCGGUAUAUUAUAAUCGCGUGGAUAUGGCACGCAAGUUUCUACCGGGCACCGUAAAUGUCCGACUGGAGCCGUUCGGGCGGCUAUAAACAGACCUCAGGCCCGAAGCGUGGCGGCACCUGCCGCCGGUGGUAAAAAAGAUCGGAAGAGCACACGUCU [U7G G9A U11A C12U C13U], the “aptazyme ON/OFF ratio” value was found to be 1.19.
As to GGGUCGCUUUCUUAUAAUCGCGUGGAUAUGGCACGCAAGUUUCUACCGGGCACCGUAAAUGUCCGACUGGAGCCGUUCGGGCGGCUAUAAACAGACCUCAGGCCCGAAGCGUGGCGGCACCUGCCGCCGGUGGUAAAAAAGAUCGGAAGAGCACACGUCU [U7C G9U U11C C12U C13U], the “aptazyme ON/OFF ratio” value was 1.13.
On to GGGUCGACUUGAUAUAAUCGCGUGGAUAUGGCACGCAAGUUUCUACCGGGCACCGUAAAUGUCCGACUGGAGCCGUUCGGGCGGCUAUAAACAGACCUCAGGCCCGAAGCGUGGCGGCACCUGCCGCCGGUGGUAAAAAAGAUCGGAAGAGCACACGUCU [U7A U8C G9U U11G C12A C13U], for which the “aptazyme ON/OFF ratio” value was found to be 1.17.
In the case of GGGUCGAGUUUGCAUAAUCGCGUGGAUAUGGCACGCAAGUUUCUACCGGGCACCGUAAAUGUCCGACUGGAGCCGUUCGGGCGGCUAUAAACAGACCUCAGGCCCGAAGCGUGGCGGCACCUGCCGCCGGUGGUAAAAAAGAUCGGAAGAGCACACGUCU [U7A U8G G9U C12G], the “aptazyme ON/OFF ratio” value worked out at 1.64.
Turning to GGGUCGGGCUAUAAUAAUCGCGUGGAUAUGGCACGCAAGUUUCUACCGGGCACCGUAAAUGUCCGACUGGAGCCGUUCGGGCGGCUAUAAACAGACCUCAGGCCCGAAGCGUGGCGGCACCUGCCGCCGGUGGUAAAAAAGAUCGGAAGAGCACACGUCU [U7G U8G G9C U11A C12U C13A], the “aptazyme ON/OFF ratio” value was 1.13.
Regarding GGGUCGUUUUCUUAUAAUCGCGUGGAUAUGGCACGCAAGUUUCUACCGGGCACCGUAAAUGUCCGACUGGAGCCGUUCGGGCGGCUAUAAACAGACCUCAGGCCCGAAGCGUGGCGGCACCUGCCGCCGGUGGUAAAAAAGAUCGGAAGAGCACACGUCU [G9U U11C C12U C13U], the “aptazyme ON/OFF ratio” value was found to be 1.34.
With GGGUCGUCGGGGCAUAAUCGCGUGGAUAUGGCACGCAAGUUUCUACCGGGCACCGUAAAUGUCCGACUGGAGCCGUUCGGGCGGCUAUAAACAGACCUCAGGCCCGAAGCGUGGCGGCACCUGCCGCCGGUGGUAAAAAAGAUCGGAAGAGCACACGUCU [U8C U10G U11G C12G], the “aptazyme ON/OFF ratio” value amounted to 1.25.
GGGUCGGCAGAACAUAAUCGCGUGGAUAUGGCACGCAAGUUUCUACCGGGCACCGUAAAUGUCCGACUGGAGCCGUUCGGGCGGCUAUAAACAGACCUCAGGCCCGAAGCGUGGCGGCACCUGCCGCCGGUGGUAAAAAAGAUCGGAAGAGCACACGUCU [U7G U8C G9A U10G U11A C12A]: the “aptazyme ON/OFF ratio” value came to 1.11.
Take GGGUCGUGGGUACAUAAUCGCGUGGAUAUGGCACGCAAGUUUCUACCGGGCACCGUAAAUGUCCGACUGGAGCCGUUCGGGCGGCUAUAAACAGACCUCAGGCCCGAAGCGUGGCGGCACCUGCCGCCGGUGGUAAAAAAGAUCGGAAGAGCACACGUCU [U8G U10G C12A]: the “aptazyme ON/OFF ratio” value amounted to 1.39.
With GGGUCGUUCCAGGAUAAUCGCGUGGAUAUGGCACGCAAGUUUCUACCGGGCACCGUAAAUGUCCGACUGGAGCCGUUCGGGCGGCUAUAAACAGACCUCAGGCCCGAAGCGUGGCGGCACCUGCCGCCGGUGGUAAAAAAGAUCGGAAGAGCACACGUCU [G9C U10C U11A C12G C13G], the “aptazyme ON/OFF ratio” value is 1.19.
In the case of GGGUCGGCGCGUAAUAAUCGCGUGGAUAUGGCACGCAAGUUUCUACCGGGCACCGUAAAUGUCCGACUGGAGCCGUUCGGGCGGCUAUAAACAGACCUCAGGCCCGAAGCGUGGCGGCACCUGCCGCCGGUGGUAAAAAAGAUCGGAAGAGCACACGUCU [U7G U8C U10C U11G C12U C13A], the “aptazyme ON/OFF ratio” value stood at 1.29.
As for GGGUCGUGUCCCCAUAAUCGCGUGGAUAUGGCACGCAAGUUUCUACCGGGCACCGUAAAUGUCCGACUGGAGCCGUUCGGGCGGCUAUAAACAGACCUCAGGCCCGAAGCGUGGCGGCACCUGCCGCCGGUGGUAAAAAAGAUCGGAAGAGCACACGUCU [U8G G9U U10C U11C], the “aptazyme ON/OFF ratio” value came to 1.05.
For the variant GGGUCGUCAUCACAUAAUCGCGUGGAUAUGGCACGCAAGUUUCUACCGGGCACCGUAAAUGUCCGACUGGAGCCGUUCGGGCGGCUAUAAACAGACCUCAGGCCCGAAGCGUGGCGGCACCUGCCGCCGGUGGUAAAAAAGAUCGGAAGAGCACACGUCU [U8C G9A U11C C12A], the “aptazyme ON/OFF ratio” value was determined as 1.3.
Take GGGUCGAGCCAUCAUAAUCGCGUGGAUAUGGCACGCAAGUUUCUACCGGGCACCGUAAAUGUCCGACUGGAGCCGUUCGGGCGGCUAUAAACAGACCUCAGGCCCGAAGCGUGGCGGCACCUGCCGCCGGUGGUAAAAAAGAUCGGAAGAGCACACGUCU [U7A U8G G9C U10C U11A C12U]: the “aptazyme ON/OFF ratio” value was determined as 1.13.
GGGUCGGAUCUGCAUAAUCGCGUGGAUAUGGCACGCAAGUUUCUACCGGGCACCGUAAAUGUCCGACUGGAGCCGUUCGGGCGGCUAUAAACAGACCUCAGGCCCGAAGCGUGGCGGCACCUGCCGCCGGUGGUAAAAAAGAUCGGAAGAGCACACGUCU [U7G U8A G9U U10C C12G]: the “aptazyme ON/OFF ratio” value was 1.52.

The record behind these values is the RNAGym collection of RNA variant scans (doi:10.1021/acssynbio.7b00057).
